The results in this text go back to patent publication US20210253639A1 (REGENTS OF THE UNIVERSITY OF MICHIGAN, published 2021).

Ends that are not written are not given here. E3 = triethyleneglycol (PEG3) linker; Cy5.5 = cyanine 5.5 fluorophore

The target of assay [1] is T1, epidermal receptor growth factor 2 (ErbB2) (human, UniProt P04626 23-1255).
T1 construct: whole, on cells; Receptor on human cancer cell lines or xenograft tumour cells; also called HER2; HER2/neu
The assay can be described thus: flow cytometry on OE33 cells (carry EGFR and ErbB2), apparent dissociation constant. On the technique in general: In flow cytometry, cells or beads pass a laser one at a time.

Assay [2] concerns the target T1, epidermal receptor growth factor 2 …. The assay can be described thus: confocal microscopy of FITC-labeled peptides on Flo1-HER2 cells. Here is the method:
A FITC label was attached to each peptide, and binding to Flo1-HER2 and QhTERT cells (control) was imaged using confocal microscopy. […] KSPNPRF (SEQ ID NO: 2) was selected based on the highest mean fluorescence intensity with binding to Flo1-HER2. From the model, this peptide was determined to bind to HER2 domain 3. The peptide was then labeled for deep tissue imaging with a Cy5.5 fluorophore via a GGGSK (SEQ ID NO: 3) linker on the C-terminus, hereafter KSP*-Cy5.5. Cy5.5 was chosen for high quantum yield and photostability. The linker prevents steric hindrance by spatially separating the fluorophore from the peptide. A scrambled sequence PPSNFKR (SEQ ID NO: 4) was developed for use as control by altering the conformationally rigid spacer PNP and moving both hydrophobic and hydrophilic amino acids at the C-terminus. This control peptide also was linked to Cy5.5 via GGGSK (SEQ ID NO: 3), hereafter PPS*-Cy5.5. […] The fluorescence emission peak occurs at 708 nm in the NIR spectrum.

The target in assay [3] is T2, epidermal growth factor receptor (EGFR) (human, UniProt P00533 25-1210).
T2 construct: whole, on cells; Endogenous receptor on human cancer cell lines or xenograft tumour cells; also called ErbB-1; HER1
Nature of the assay: flow cytometry on OE33 cells (carry EGFR and ErbB2), apparent dissociation constant.

Assay [4] deals with EGFR and ErbB2 together on the surface of cells that express both (OE33, SKBr3) (human) (UniProt P00533). Nature of the assay: flow cytometry on OE33 cells, against QRH*-Cy5.5 and KSP*-Cy5.5.
For assay [5] the target is unchanged. The assay can be described thus: confocal microscopy on OE33 cells, against QRH*-Cy5.5 and KSP*-Cy5.5.
For assay [6] the target is unchanged. The assay can be described thus: flow cytometry on OE33 cells, apparent dissociation constant.
For assay [7] the target is unchanged. Nature of the assay: flow cytometry time course on OE33 cells, 1 µM peptide, first-order fit.

B1: KSP*-Cy5.5 (peptide)
peptide: KSPNPRFGGGSK(Cy5.5)-NH2
notes: also called KSP*-GGGSK-Cy5.5; ErbB2 monomer peptide
With B1, the Kd in assay [1] is 54 nM.

KSPNPRF (also: FITC label, attachment not given here) [KSPNPRF with a FITC label]: the binding result in assay [2] was “binds”.

B2: QRH*-Cy5.5 (peptide)
peptide: QRHKPREGGGSK(Cy5.5)-NH2
notes: also called QRH*-GGGSK-Cy5.5; EGFR monomer peptide
For B2, in assay [3], the Kd stood at 98 nM.

B3: QRH*-KSP*-E3-Cy5.5 (peptide)
peptide 1: QRHKPRE-E3
peptide 2: KSPNPRF-E3
modifications: not fully specified (bridges); also: heterodimer: both C-termini joined via E3 to alpha and epsilon amines of a Lys, followed by Lys carrying Cy5.5
Consider B3, for which the fold improved binding affinity compared with either monomer alone in assay [4] was 2 fold. Further, in assay [5], the fold greater fluorescence intensity compared with either monomer alone stood at 3 fold. The Kd in assay [6] was 23 nM. Further, in assay [7], the apparent association time constant Ka is 0.22 min⁻¹ and the association time (printed in brackets after Ka) turned out to be 4.5 min.
